This series in a line: label from the status in PepcDB records.
As for “MTEVRPGAVASASLWERDAEIAALVEAVDALRADSPSSGSGSLLVFSGEAGIGKTALLGETRRIAESRGCTVWSARGGETVTSVPFNVVRQLLQPALVALMPDEAREYLGDWYDIAGPALGITEPGDRQADPQGVCDGLVAAVRRLARREWPLVLLIDDAHWADQETLHWLAAFAERLHDLSVLVVVARRPGEATEESTRHLDVIAAAAGPVATLSALTPEATAGLTRATVGVHADAPFCREVWAVTGGNPYETVELLAKVQDSELEPSESSAAELRALNRSARGRGLVARLEGLGIDATRFAWAAAILGTGISLDLAAQLAGMQREEALHCADLLGAARILTEPAPVNGRQPDGDLEFVHPLIASAVYNSIPDALRTAMHGVAAQVVTDSGLGAAAASRHLLEVHPDDDAELVDQMREAAREHLAVGAPDAARRCLERALLEPPLSDVHARVLYELGCATLLTSPATTIDYLQAALAMPGLDGDVRVDAVFRLSQALLHNNQVEEAVRTVDAEAARLEPGPARMRLQAVHYMWECVHAGEDISPTSVRALAELAKKCTGKDNSERALLILRGFDAMTRGENAEEVAELCDRALVNGRLAPGLGWTDTEWGIELLMMLASAYAYADRLDRAEALYNEALRAYEGAGWSGGHLALAHSYVGLGHRRRGRLTEAEKYLRESLRIAERVGRGLPLYWSATCGLVDTLLARGHVEEAAEIAERYGFGPPYPTTIVLPDTRSVRGRLLLALGRTEEGVNELEAAEKAATARGHHNTVLAPWALDLARALAVDDPRRAAELAATARRQAERFGTDTAIGEALRCAAALETGQRAASLYKQAVTYLEASPCSYEHAAARVEYGIATRSATELTRGLTLARSCGADGLVAQAQEALDNGPGLR”, the protein production entry is “failed”.
On to “MQMAGFGLIAKLRNKIRVKPNNKIQIGKNTRIRYCDIYVNGNNNQLIIHNGANLKGVSIELNGNNCLLEIGENCVIGENCFLSCRESGTKLVIGKECMFSRNVKLMTSDGHDILRDGKRINPAKSIYIGSHVWLADNVTILKGVDIGSGSIIGINSTVTKSIGQYCIAAGNPARKIKDNISWNTTLSY”, for which the protein production entry is “failed”.
In the case of “MILIRYLIKEVFKSQIAILLILLLIFFSQQFVRVLGAAANGNVPADLVFSLLGLGMPTMAQLMLPLCLFIAILLTFGRLYAESEITVMRACGVGQRILVKVALIMSLLTAGIAAYNALWLSPWAIQKQVNMVEDAKANPTVGVLSSGQFISTNNNNVVLFIDKIKDNQIRNVYLFQMTPQKQTKPSVITAEKGELIALPNGDQVLNLKNTKRVEGTSALPDFRITHFDEYHAYLGYQSAENTNDEVAELTLSQLIDLDSSSAKAELHWRITLILAVPLMALIAVPLSRVNPRQGRFAKILPALLLYLIYFLLQSSFKSAGSAGKLEAELLMPLVNIGFFLLAVVLNSWDSEIMYKFRYLFSKKGSAKDDKYP”, the protein production result is “failed”.
Take “MPLSTSDNIAAVIVTHKRVELLRASLEVVAAQTHPVKWIIVVDNGCEDAVRDLLHSVAGDRGIYLPSHTNLGGAGGFAYGFLTALALGADAIWCADDDGRPEGPQVLATLIDAAVTHQLDEVSPVVCNMDDPNRLAFPLRRGLEWRRYRSELIDPNNPSDTLLPGIASLFNGALISAAAMERIGVPDLRLFIRGDEVEYHRRLVRSGLNFGTCLTTAYLHPDGSDEFKPILGGRMHTQYPASDAKRYFTYRNRGYLMNQPGMRRLLPQEYARFAWFFLIQRRDPRGFLEWFKLHQLGRSEKFERPLEHHHHHH”: the protein production entry is listed as “failed”.
With “MSLKDKKILIVEDSKFQAKTIANILNKYGYTVEIALTGEAAVEKVSGGWYPDLILMDIELGEGMDGVQTALAIQQISELPVVFLTAHTEPAVVEKIRSVTAYGYVMKSATEQVLITIVEMALRLYEANVHANEGHHHHHH”, the protein production entry is reported as “not failed”.
As for “MNINLSVPYAAEGPGPTINTLGQVDGEDVVSISSADLDETEGNLNMTTVSVRSGMTLSQVISRWLFTDDTIVPIEQVFPPGQSTEEVEESNRTAFISSESSATIAAMNYLNIPVEVEVAEVLTDSAATGIFEPGDKLLSIDGTAISTPGDAQTIVRSKAPGDEITISYERNDAESQATITLREHPDDSSVALLGISMLSVPSSAIEVDYNLEDIGGPSAGMMFSLAVVDKLSPGALNGGKFVAGTGTIAEDGSVGPIGGIAHKVRAAEDAGAEVFLSPADNCAEAMSAKPQDMTILKVDSLSQAIDQMAAYNEGLEHHHHHH”, the protein production entry is recorded as “not failed”.
“SNSIGLRQSVSDKGIEIVNLLAPKVEMLGFDLLGAEYLLVPSGAILRLYIDIPFAMQPECMVSIDDCERVSREVSAYLDLEEPISGNYTLEVSSP”: the protein production entry is “failed”.
The result for “MQKLFLTFFYSGSVKKASGTFGTIAALIPAFFILKYLGINTLFLLSILIFVASIRVIDDYEKKTGIHDDKHIVIDEVAGVFLACAIAASVENSIVNFILAFVLFRLFDITKPSIIGKIDKKVKGGLGVMLDDMLAGLFAGLLSAVIYGFLLKFNLVFWDINLKDLF” reads “failed”; that for “MKHAQKYRYFSLLMGLVLLLSACQIGATTKDDNQAATKEATVELNRTTTPTLFFHGYAGTKNSFGSLLHRLEKQGATTQELVLLVKPDGTVVKERGALSGKATNPSVQVLFEDNKNNEWNQTEWIKNTLLYLQKNYQVNKANIVGHSMGGVSGLRYLGTYGQDTSLPKIEKFVSIGAPFNDFIDTSQQQTIETELENGPTEKSSRYLDYQEMINVVPEKLPILLIGGQLSPTDLSDGTVPLSSALAVNALLRQRGTQVTSQIIKGENAQHSQLHENPEVDQLLIEFLWPSKK”, “failed”; that for “MKVNKRVLSIGLAISLIMAGAPNINALSSIEKIQGKDRYETAAKIAQKQTYENVVLVNTDNTLADGLSASGLAGTVKAPILLSQRNSIPSDTEKMLKDVKKVYIIGTEDSIGKSVENELKQKGIEVKRIGGNDRIETSYLIAKEIASIKPIDKVFITNGYTGEADAMSASSVASRDGAPIILTNGKNVPFEKKEGVQCYALGSEEIISNDLVKKTNSVRLAGEDRFETNKKVIKHFYSSAKEFYLSKGYQLVDAVAGSSIAKNAPIVLVDGNSDKSVLRSADKITALGGIDEKTLEQCLSASSLDASAPTITVGNLNIYQGDKFDISKLNIVAKDSNGNDLTPELIGNINTDKVGKYKVTIKATDIGGKTTSISVEVNVLEYKTNDMNSSEFKRMVSSEMYSLVNSYRKEKGKEPLQVSENLQGMANYWSKYMADKGEFAHVINGKNAAEVFSGGIRSEENIAFVPLTTKSTYTTKDAREVANVIFTVWKKSDKYNENMLSSKFAYTGFGLYILPDGQVYATQEFLNK”, “failed”.
Turning to “CKLCLGEYPVEQMTTIAQCQCIFCTLCLKQYVELLIKEGLETAISCPDAACPKQGHLQENEIECMVAAEIMQRYKKLQFER”, the protein production entry was “not failed”.
Take “MGMTVVIILVFSFFVAIVTAETSPYIIHMDLSAKPLPFSDHRSWFSTTLTSVITNRKPKIIYAYTDSVHGFSAVLTNSELQRLKHKPGYVSFTKDLPVKLHTTFSPKFIGLNSTSGTWPVSNYGAGIVIGIIDTGIWPDSPSFHDDGVGSVPSKWKGACEFNSSSLCNKKLIGAKVFNKGLFANNPDLRETKIGQYSSPYDTIGHGTHVAAIAAGNHVKNASYFSYAQGTASGIAPHAHLAIYKAAWEEGIYSSDVIAAIDQAIRDGVHVISLSLGLSFEDDDDNDGFGLENDPIAVASFAAIQKGVFVVTSGGNDGPYYWSLINGAPWIMTVGAGTIGRQFQGTLTFGNRVSFSFPSLFPGEFPSVQFPVTYIESGSVENKTLANRIVVCNENINIGSKLHQIRSTGAAAVVLITDKLLEEQDTIKFQFPVAFIGSKHRETIESYASSNKNNATAKLEFRKTVIGTKPAPEVGTYSSRGPFTSFPQILKPDILAPGTLILSAWPSVEQITGTRALPLFSGFNLLTGTSMAAPHVAGVAALIKQVHPNWSPSAIKSAIMTTALTLDNPLAVGAGHVSTNKVLNPGLIYDTTPQDFINFLCHEAKQSRKLINIITRSNISDACKKPSPYLNYPSIIAYFTSDQSSPKIFKRTLTNVGEAKRSYIVRVRGLKGLNVVVEPKKLMFSEKNEKLSYTVRLESPRGLQENVVYGLVSWVDEDEAEFEVSCSVVATSLVQES”: the protein production entry is reported as “failed”.
For the sequence “MRTVPSLSMSKSRCNMLASTLDRPSPEDSQTLAEVERTITSGVGALCFSRGLERRYQTETRLQRREFLTAMGIGGSLIYNLFLITDWLILRDVFVYVAIGRLCLITPMFIIMLILARRLASRRAMETTAAVATVLCSLMPMVVMTYSESPYQIFYQLGMLLIMVYCTMIQQLPLRHAAAALSCMLIIQLVTTYIADFADFVIWQANALLFVSTVMLLLMASYFLERASRLSYLFALRGRLLQVQLLEFARTDALTRLFNRRYQDEVLTSVWERARKKQANVAIILLDIDHFKSYNDNYGHPQGDVCLKLLCKAIQQSANDGGAVAFRFGGEEVLVLMNADADQATKMAETLKATVAALKLPHPALGEDAHVTISLGVASGIAPLITYDTLISAADNALYAAKHAGRNCVFCQP”, the protein production result is reported as “failed”.
Regarding “MILTLLQNGDYETARTQALTELKNNSDNAELHYYAAWAHDALGKEDAAIPFYEKALQLGLPADSRKEAYIGLGSTYRITGQPEKSIRLFETALQEFPDNNALRTFSVMAKYNQGLEKEALEEALMLLTQTTSDEDILSYKKAIQFYAQDLDATFHLEHHHHHH”, the protein production entry is reported as “not failed”.
On to “DEWTDEQFKQLISFKTQPGGWGVTDVHVRYANSAKYTYNLPVLVSGSTDNTDDRLVSFSLRDDTLDILNFEKFGNRPELYFRELPQKYYSFPKELTIPAGQSHALLPIEFSLDGLDDSQKWALPLKVCEDANGTYAVNPRKYYRTAVLRPILFNEFSGRFSGSSLLGTMAGESDIKFSSTEIKLNVVTDSIVFFYAGQRTEDYEDRINYKVFLQFTGDKVDSKKDLYKMKIWAENEKLKFNSYSTPTYKVSSEMDATKTYLKHTYIVISDIDFDFVDYTSVPNYEIEYNMKGGLSVSRDLDTRKPDEDQGSDSKWW”, for which the protein production entry is listed as “not failed”.
As for “MSGSLARAAARPNAPTLVDEATVDDFIAHSGKIVVLFFRGDAVRFPEAADLAVVLPELINAFPGRLVAAEVAAEAERGLMARFGVAVCPSLAVVQPERTLGVIAKIQDWSSYLAQIGAMLAEVDQPGEAELQS”, the protein production entry is reported as “not failed”.
As to “MGHHHHHHSHMPQFSPSYSFPVQIYYEDTDFSGVVYHPNFLKYFERAREHVIGAEQLRNLWQQQQLGFAVYRSDMLCHEGVEFADIIDIRTKFYFESKYRTVWHQEIWRPNGKKPAVTATIEMVCMNQARQLAPMPAELITQLSLGM”, the protein production entry was “not failed”.
As to “GAPGPCGLARQNSTSLTGKPGALPANLDDMKVAELKQELKLRSLPVSGTKTELIERLRAYQDQISPVPGAPKAPAATSILHKAGEVVVAFPAARLST”, the protein production result was “failed”.
Under “MAKEVVYRGSARQRMMQGIEILARAAIPTLGATGPSVMIQHRADGLPPISTRDGVTVANSIVLKDRVANLGARLLRDVAGTMSREAGDGTTTAIVLARHIAREMFKSLAVGADPIALKRGIDRAVARVSEDIGARAWRGDKESVILGVAAVATKGEPGVGRLLLEALDAVGVHGAVSIELGQRREDLLDVVDGYRWEKGYLSPYFVTDRARELAELEDVYLLMTDREVVDFIDLVPLLEAVTEAGGSLLIAADRVHEKALAGLLLNHVRGVFKAVAVTAPGFGDKRPNRLLDLAALTGGRAVLEAQGDRLDRVTLADLGRVRRAVVSADDTALLGIPGTEASRARLEGLRLEAEQYRALKPGQGSATGRLHELEEIEARIVGLSGKSAVYRVGGVTDVEMKERMVRIENAYRSVVSALEEGVLPGGGVGFLGSMPVLAELEARDADEARGIGIVRSALTEPLRIIGENSGLSGEAVVAKVMDHANPGWGYDQESGSFCDLHARGIWDAAKVLRLALEKAASVAGTFLTTEAVVLEIPDTDAFAGFSAEWAAATREDPRV” stands “failed”; under “MSFFNKIILIGRLVRDPEERYTLSGTPVTTFTIAVDRVPRKNAPDDAQTTDFFRIVTFGRLAEFARTYLTKGRLVLVEGEMRMRRWETPTGEKRVSPEVVANVVRFMDRKPAETVSETEEELEIPEEDFSSDTFSEDEPPF”, “not failed”.

These data come from a protein production outcome set (Wang et al. 2014).
